The text below walks through data of patent US20240228572A1, “LONG ACTING GLUCAGON RECEPTOR SELECTIVE PEPTIDES AND METHODS OF USE” (i2o Therapeutics, Inc., priority 2020, published 2024).

The target in this test is hGIPR (human) (UniProt P48546). Briefly: cell-based or functional assay.
Chain of hGIPR (human) (P48546 22-466): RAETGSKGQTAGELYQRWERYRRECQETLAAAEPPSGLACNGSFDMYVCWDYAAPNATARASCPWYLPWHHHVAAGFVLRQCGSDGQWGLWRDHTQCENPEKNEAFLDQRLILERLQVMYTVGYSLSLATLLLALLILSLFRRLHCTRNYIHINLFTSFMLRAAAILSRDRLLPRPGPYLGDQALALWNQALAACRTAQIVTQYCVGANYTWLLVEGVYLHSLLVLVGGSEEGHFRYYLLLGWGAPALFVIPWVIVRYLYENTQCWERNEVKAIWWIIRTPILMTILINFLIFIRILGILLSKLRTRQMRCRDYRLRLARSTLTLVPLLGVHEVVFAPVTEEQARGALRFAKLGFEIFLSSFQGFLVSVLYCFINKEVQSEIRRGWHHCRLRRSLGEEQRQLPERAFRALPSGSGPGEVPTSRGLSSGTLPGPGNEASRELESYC

“hGIP (from UniProt P09681 52-93) (peptide)” came in with a pEC50, cAMP accumulation (pEC50 (-log M)) of 11.8.
